In patent US20060058231A1:

Experiments:
Assay in all cases: ELISA-like plate assay, captured BMP-7 from conditioned media, receptor-Fc detection
[1] = target: T1, BMPRII receptor-Fc fusion (UniProt Q13873)
T1 sequence (looked up): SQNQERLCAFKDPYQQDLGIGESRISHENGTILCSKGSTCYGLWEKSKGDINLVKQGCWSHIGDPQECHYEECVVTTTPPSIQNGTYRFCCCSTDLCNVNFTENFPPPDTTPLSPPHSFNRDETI

[2] = target: T2, BMPRIb receptor-Fc fusion (UniProt O00238)
T2 sequence (looked up): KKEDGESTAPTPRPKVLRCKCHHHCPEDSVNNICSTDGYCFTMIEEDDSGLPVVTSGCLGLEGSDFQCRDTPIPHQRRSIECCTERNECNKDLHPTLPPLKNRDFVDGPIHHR

[3] = target: ActRIIa receptor-Fc fusion (UniProt P27037)
[4] = target: BMPRIa receptor-Fc fusion (UniProt P36894)
BMPRIa receptor-Fc fusion, sequence (P36894 24-152 limits assumed): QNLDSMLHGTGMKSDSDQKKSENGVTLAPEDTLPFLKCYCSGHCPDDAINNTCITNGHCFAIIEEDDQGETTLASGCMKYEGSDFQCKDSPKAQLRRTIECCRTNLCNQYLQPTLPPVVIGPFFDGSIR

ActRIIa receptor-Fc fusion, sequence (P27037 20-134 limits assumed): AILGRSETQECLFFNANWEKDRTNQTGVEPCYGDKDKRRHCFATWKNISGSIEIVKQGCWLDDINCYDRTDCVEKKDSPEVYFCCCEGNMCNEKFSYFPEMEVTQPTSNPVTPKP

Substance | BMPRII binding (relative to wild type = 1.0) (relative to wild type) [1] | BMPRIb binding (relative to wild type = 1.0) (relative to wild type) [2] | ActRIIa binding (relative to wild type = 1.0) (relative to wild type) [3] | BMPRIa binding (relative to wild type = 1.0) (relative to wild type) [4]
BMP-7 variant F117S (from UniProt P18075 293-431 at identity 0.99)) (ligand) | -0.04 | -0.08 | – | –
BMP-7 variant L115A (from UniProt P18075 293-431 at identity 0.99)) (ligand) | -0.01 | – | 0.01 | -0.02
BMP-7 variant W52P (from UniProt P18075 293-431 at identity 0.99)) (ligand) | 0.01 | – | 0.07 | 0.03

The remaining lines, values ahead:

BMPRII binding (relative to wild type = 1.0) (relative to wild type) [1] | BMPRIb binding (relative to wild type = 1.0) (relative to wild type) [2] | ActRIIa binding (relative to wild type = 1.0) (relative to wild type) [3] | BMPRIa binding (relative to wild type = 1.0) (relative to wild type) [4] | Substance
0.09 | – | – | – | BMP-7 variant F93A (from UniProt P18075 293-431 at identity 0.99)) (ligand)
0.07 | – | – | – | BMP-7 variant L21E (from UniProt P18075 293-431 at identity 0.99)) (ligand)
-0.13 | -0.51 | – | – | BMP-7 variant R48E (from UniProt P18075 293-431 at identity 0.99)) (ligand)
0.08 | – | – | – | BMP-7 variant S77H (from UniProt P18075 293-431 at identity 0.99)) (ligand)
0.03 | – | 0.09 | – | BMP-7 variant W55A (from UniProt P18075 293-431 at identity 0.99)) (ligand)
